Publication PMC9770967, “Native holdup (nHU) to measure binding affinities from cell extracts” (Science Advances, 2022)

Biological target: biotinylated PDZ-binding motif (PBM) peptide of diacylglycerol kinase zeta (DGKZ)
Assay: native holdup (nHU) with Western blot; titration; biotinylated DGKZ PBM peptide on streptavidin resin as bait, mixed with biotin-saturated control resin at constant resin/analyte ratio; total Jurkat extract (2 mg/ml) as analyte; 4°C, 2 hours; prey depletion in the supernatant read by Western blot; apparent constants; three replicates

endogenous full-length Scribble (SCRIB) (from UniProt Q14160 1-1655) (natural protein)
pKapp (negative logarithm of the apparent dissociation constant): 6.4 pKapp
